# From patent publication US20210388087A1 (Chugai, published 2021)
# Numbering of substitutions follows the chain as printed. Names and notes keep the numbering of the source.
# B1: dBBDu183H H93D/dBBDu072L (antibody, name in Kabat numbering, V domains shown)
# VH: QVQLVESGGGLVQPGRSLRLSCAASGFTFSNAWMHWVRQAPGKGLEWVAQIKDKGNAYAAYYAPSVKGRFTISRDDSKNSIYLQMNSLKTEDTAVYYCDYVHYASASTVLPAFGVDAWGQGTTVTVSS
# VL: DIVMTQSPLSLPVTPGEPASISCQASQELVHMNRNTYLHWYQQKPGQAPRLLIYKVSNRFPGVPDRFSGSGSGTDFTLKISRVEAEDVGVYYCAQGTSVPFTFGQGTKLEIK
# B2: dBBDu183H H93G/dBBDu072L (antibody, name in Kabat numbering, V domains shown)
# VH: B1 VH with D99G
# VL: B1 VL
# B3: dBBDu183H H96F/dBBDu072L (antibody, name in Kabat numbering, V domains shown)
# VH: B1 VH with D99H, H102F
# VL: B1 VL
# B4: dBBDu183H H93W/dBBDu072L (antibody, name in Kabat numbering, V domains shown)
# VH: B1 VH with D99W
# VL: B1 VL
# B5: dBBDu183H H96D/dBBDu072L (antibody, name in Kabat numbering, V domains shown)
# VH: B1 VH with D99H, H102D
# VL: B1 VL
# B6: dBBDu183H H93K/dBBDu072L (antibody, name in Kabat numbering, V domains shown)
# VH: B1 VH with D99K
# VL: B1 VL
# B7: dBBDu183H H93T/dBBDu072L (antibody, name in Kabat numbering, V domains shown)
# VH: B1 VH with D99T
# VL: B1 VL
# B8: dBBDu183H H93F/dBBDu072L (antibody, name in Kabat numbering, V domains shown)
# VH: B1 VH with D99F
# VL: B1 VL
# B9: dBBDu183H H93Q/dBBDu072L (antibody, name in Kabat numbering, V domains shown)
# VH: B1 VH with D99Q
# VL: B1 VL
# B10: dBBDu183H H93R/dBBDu072L (antibody, name in Kabat numbering, V domains shown)
# VH: B1 VH with D99R
# VL: B1 VL
# B11: dBBDu183H H93Y/dBBDu072L (antibody, name in Kabat numbering, V domains shown)
# VH: B1 VH with D99Y
# VL: B1 VL
# B12: dBBDu183H H96E/dBBDu072L (antibody, name in Kabat numbering, V domains shown)
# VH: B1 VH with D99H, H102E
# VL: B1 VL
# B13: dBBDu183H H93V/dBBDu072L (antibody, name in Kabat numbering, V domains shown)
# VH: B1 VH with D99V
# VL: B1 VL
# B14: dBBDu183H H96G/dBBDu072L (antibody, name in Kabat numbering, V domains shown)
# VH: B1 VH with D99H, H102G
# VL: B1 VL
# B15: dBBDu183H H93E/dBBDu072L (antibody, name in Kabat numbering, V domains shown)
# VH: B1 VH with D99E
# VL: B1 VL
# B16: dBBDu183H H93N/dBBDu072L (antibody, name in Kabat numbering, V domains shown)
# VH: B1 VH with D99N
# VL: B1 VL
# B17: dBBDu183H H93S/dBBDu072L (antibody, name in Kabat numbering, V domains shown)
# VH: B1 VH with D99S
# VL: B1 VL
# Molecular target: T1, Human CD3eg linker (human)
# T1 construct: single-chain construct; also called recombinant human CD3
# T1 chain: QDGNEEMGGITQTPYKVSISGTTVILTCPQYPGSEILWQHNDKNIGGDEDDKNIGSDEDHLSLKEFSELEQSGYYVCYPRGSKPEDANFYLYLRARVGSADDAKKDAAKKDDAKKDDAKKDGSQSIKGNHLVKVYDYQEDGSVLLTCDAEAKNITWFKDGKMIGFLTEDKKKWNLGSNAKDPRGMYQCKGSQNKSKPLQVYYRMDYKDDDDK
# Test: SPR, vs unmutated H183/L072
row,Binder,fold change of affinity [fold]
1,B1,0
2,B2,0
3,B3,0
4,B4,0
5,B5,0
6,B6,0.2
7,B7,0
8,B8,0
9,B9,0
10,B10,2.4
11,B11,0
12,B12,0
13,B13,0
14,B14,0.2
15,B15,0
16,B16,0
17,B17,0
